Experimental data: paper PMC6181050

Experiments:
[1] = target: PSI core complex (Chlamydomonas reinhardtii) (UniProt P12154); assay: co-purification by sucrose density gradient ultracentrifugation with 14C autoradiography; PSI-LHCI supercomplex from uniformly 14C-labelled wild-type cells; NaBr-washed thylakoids solubilised with 0.8% beta-DDM; TLS-55 rotor, 259,000g, 2.5 h; polypeptides separated by three SDS-PAGE systems; signal divided by carbon number and normalised to PSAF
[2] = target: PSI core complex (Chlamydomonas reinhardtii) (UniProt P12154); assay: co-purification by sucrose density gradient ultracentrifugation with immunoblotting; PSI-LHCI complex from the ΔLHCA5 mutant (no LHCA5); thylakoids solubilised with 1% beta-DDM; SW41Ti, 288,000g, 4°C, 16 h; immunoblots normalised to PSAD
[3] = target: PSAF (Chlamydomonas reinhardtii); assay: co-purification by sucrose density gradient ultracentrifugation with 14C autoradiography; PSI-LHCI supercomplex from uniformly 14C-labelled wild-type cells; NaBr-washed thylakoids solubilised with 0.8% beta-DDM; TLS-55 rotor, 259,000g, 2.5 h; polypeptides separated by three SDS-PAGE systems; signal divided by carbon number and normalised to PSAF

Chain of UniProt P12154 (P12154 whole entry, looked up, one chain of several): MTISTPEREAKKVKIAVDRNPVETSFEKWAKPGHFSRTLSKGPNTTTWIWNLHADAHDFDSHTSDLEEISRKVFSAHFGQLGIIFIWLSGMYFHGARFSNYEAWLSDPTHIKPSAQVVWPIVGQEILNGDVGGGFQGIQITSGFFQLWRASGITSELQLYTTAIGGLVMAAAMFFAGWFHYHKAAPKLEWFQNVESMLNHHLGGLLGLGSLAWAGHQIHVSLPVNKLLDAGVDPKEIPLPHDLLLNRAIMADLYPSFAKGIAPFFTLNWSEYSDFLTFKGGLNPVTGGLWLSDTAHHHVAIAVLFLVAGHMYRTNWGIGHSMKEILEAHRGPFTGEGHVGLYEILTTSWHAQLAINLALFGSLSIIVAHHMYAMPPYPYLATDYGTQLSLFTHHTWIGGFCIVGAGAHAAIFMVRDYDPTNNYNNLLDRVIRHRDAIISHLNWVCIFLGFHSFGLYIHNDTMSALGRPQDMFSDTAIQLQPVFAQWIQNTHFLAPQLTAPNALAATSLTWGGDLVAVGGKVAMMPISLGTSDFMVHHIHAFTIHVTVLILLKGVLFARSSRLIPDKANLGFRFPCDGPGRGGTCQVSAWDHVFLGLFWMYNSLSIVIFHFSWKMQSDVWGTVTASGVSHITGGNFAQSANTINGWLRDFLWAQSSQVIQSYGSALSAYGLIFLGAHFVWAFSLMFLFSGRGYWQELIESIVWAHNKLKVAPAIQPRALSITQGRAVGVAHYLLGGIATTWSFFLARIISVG

| Substance | stoichiometry N (copy, on a PSAF basis) [1] | also measured |
| --- | --- | --- |
| LHCA1 (natural protein) |  | stoichiometry N (copies, on a PSAF basis) [1]: 1.81; amount in the PSI-LHCI supercomplex from the ΔLHCA5 mutant, percent of the control level [2]: 50% |
| LHCA8 (natural protein) | 1 |  |
| LHCA9 (natural protein) | 1 |  |
| PSAD (natural protein) |  | stoichiometry N (relative abundance, on a PSAF basis) [3]: 1.17 |

Continued, in another order:

| stoichiometry N (copy, on a PSAF basis) [1] | Substance | also measured |
| --- | --- | --- |
| 1 | LHCA2 (natural protein) |  |
| 1 | LHCA3 (natural protein) |  |
| 1 | LHCA5 (natural protein) |  |
| 1 | LHCA7 (natural protein) |  |
